Test results from paper doi:10.1101/2021.02.17.431743 (bioRxiv, 2021).

B1: HENV-117 human monoclonal antibody (antibody, V domains shown)
VH: QVQLQQWGAGLLKPSETLSLTCDLSGGSFTNYYWTWIRHLPGKGLEWLGEINHSGRTNYSPSLKSRVTISVDTSKNQFSLRLSSVTAADTAVYYCARDIRKLAPKPHSYDLYYGMDVWGQGTTVTVSS
VL: EIVLTQSPGTLSLSPGERATLSCRASQSVGSNYLTWYQQKPGQPPRLLIYGASNRAAGIPDRFSGSGSGTDFTLTISRLEPEDFAVYYCQQYETSSRTFGQGTKVDIR
B2: HENV-103 human monoclonal antibody (antibody, V domains shown)
VH: QVQLQGSGPGLVKPSQTLSLTCSVSGGSVSRSGYYWGWIRQHPGKGLECIGYIYYSGITYYNPSLSGRLTISVDTSKNQFSLELSSVTAADTAVYYCARVWLGGGVFDFWGQGSLVTVSS
VL: EIVMTQSPATLSVSPGEGATLSCRASQSVSSNLAWYQQKPGQAPRLLIYDASTRATGIPARFSGSGSGTEFTLTISSLQSEDFAVYYCQQYNDWRTFGRGTKVEMR

Target: full-length HeV-RBP (Hendra virus receptor binding protein); head, stalk, transmembrane, and cytoplasmic … (Hendra virus, UniProt O89343)
Sequence (O89343 whole entry): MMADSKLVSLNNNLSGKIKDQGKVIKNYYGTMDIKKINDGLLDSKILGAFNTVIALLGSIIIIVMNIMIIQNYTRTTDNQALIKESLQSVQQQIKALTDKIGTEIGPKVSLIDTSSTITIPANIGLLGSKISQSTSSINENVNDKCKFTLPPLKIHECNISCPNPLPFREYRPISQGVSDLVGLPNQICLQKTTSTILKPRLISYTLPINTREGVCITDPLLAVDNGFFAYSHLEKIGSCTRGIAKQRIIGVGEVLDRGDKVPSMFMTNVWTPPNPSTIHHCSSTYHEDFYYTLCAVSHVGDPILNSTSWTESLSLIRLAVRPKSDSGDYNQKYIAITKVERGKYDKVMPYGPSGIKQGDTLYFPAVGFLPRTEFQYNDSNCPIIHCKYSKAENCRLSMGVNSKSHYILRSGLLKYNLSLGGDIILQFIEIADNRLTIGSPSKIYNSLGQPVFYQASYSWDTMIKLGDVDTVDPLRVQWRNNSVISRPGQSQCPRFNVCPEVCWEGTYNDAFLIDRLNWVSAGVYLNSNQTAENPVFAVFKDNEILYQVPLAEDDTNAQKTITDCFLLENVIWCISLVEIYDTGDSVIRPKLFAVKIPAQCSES
Experiment: flow cytometry on cells

Binder	binding result
B1	binds
B2	binds
